Measurements as given in IntAct's records for PubMed 31296862.

B1: Type IV methyl-directed restriction enzyme EcoKMcrB subunit (Escherichia coli (strain K12)), P15005 (parent)
chain: MESIQPWIEKFIKQAQQQRSQSTKDYPTSYRNLRVKLSFGYGNFTSIPWFAFLGEGQEASNGIYPVILYYKDFDELVLAYGISDTNEPHAQWQFSSDIPKTIAEYFQATSGVYPKKYGQSYYACSQKVSQGIDYTRFASMLDNIINDYKLIFNSGKSVIPPMSKTESYCLEDALNDLFIPETTIETILKRLTIKKNIILQGPPGVGKTFVARRLAYLLTGEKAPQRVNMVQFHQSYSYEDFIQGYRPNGVGFRRKDGIFYNFCQQAKEQPEKKYIFIIDEINRANLSKVFGEVMMLMEHDKRGENWSVPLTYSENDEERFYVPENVYIIGLMNTADRSLAVVDYALRRRFSFIDIEPGFDTPQFRNFLLNKKAEPSFVESLCQKMNELNQEISKEATILGKGFRIGHSYFCCGLEDGTSPDTQWLNEIVMTDIAPLLEEYFFDDPYKQQKWTNKLLGDS
partner: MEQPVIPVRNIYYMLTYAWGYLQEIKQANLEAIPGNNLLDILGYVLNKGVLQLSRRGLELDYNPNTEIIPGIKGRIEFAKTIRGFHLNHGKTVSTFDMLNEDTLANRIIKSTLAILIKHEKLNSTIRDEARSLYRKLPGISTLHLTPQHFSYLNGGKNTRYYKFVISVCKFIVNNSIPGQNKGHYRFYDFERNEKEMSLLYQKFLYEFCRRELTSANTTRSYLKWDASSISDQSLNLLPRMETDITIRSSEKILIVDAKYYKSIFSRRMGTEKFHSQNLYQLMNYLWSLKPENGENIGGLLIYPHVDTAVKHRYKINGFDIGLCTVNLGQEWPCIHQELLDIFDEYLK

Variants of: B1
Conditions: with mcrc_ecoli mcrC

effect of a mutation on the interaction	Variant
disrupting interaction strength	MESIQPWIEKFIKQAQQQRSQSTKDYPTSYRNLRVKLSFGYGNFTSIPWFAFLGEGQEASNGIYPVILYYKDFDELVLAYGISDTNEPHAQWQFSSDIPKTIAEYFQATSGVYPKKYGQSYYACSQKVSQGIDYTRFASMLDNIINDYKLIFNSGKSVIPPMSKTESYCLEDALNDLFIPETTIETILKRLTIKKNIILQGPPGVGKTFVARRLAYLLTGEKAPQRVNMVQFHQSYSYEDFIQGYRPNGVGFRRKDGIFYNFCQQAKEQPEKKYIFIIDEINRANLSKVFGEVMMLMEHDKRGENWSVPLTYSENDEERFYVPENVYIIGLMNTADRSLAVVDYALRARFSFIDIEPGFDTPQFRNFLLNKKAEPSFVESLCQKMNELNQEISKEATILGKGFRIGHSYFCCGLEDGTSPDTQWLNEIVMTDIAPLLEEYFFDDPYKQQKWTNKLLGDS [R348A]
disrupting interaction strength	MESIQPWIEKFIKQAQQQRSQSTKDYPTSYRNLRVKLSFGYGNFTSIPWFAFLGEGQEASNGIYPVILYYKDFDELVLAYGISDTNEPHAQWQFSSDIPKTIAEYFQATSGVYPKKYGQSYYACSQKVSQGIDYTRFASMLDNIINDYKLIFNSGKSVIPPMSKTESYCLEDALNDLFIPETTIETILKRLTIKKNIILQGPPGVGKTFVARRLAYLLTGEKAPQRVNMVQFHQSYSYEDFIQGYRPNGVGFRRKDGIFYNFCQQAKEQPEKKYIFIIDEINRANLSKVFGEVMMLMEHDKRGENWSVPLTYSENDEERFYVPENVYIIGLMNTADRSLAVVDYALRRAFSFIDIEPGFDTPQFRNFLLNKKAEPSFVESLCQKMNELNQEISKEATILGKGFRIGHSYFCCGLEDGTSPDTQWLNEIVMTDIAPLLEEYFFDDPYKQQKWTNKLLGDS [R349A]
with no effect	MESIQPWIEKFIKQAQQQRSQSTKDYPTSYRNLRVKLSFGYGNFTSIPWFAFLGEGQEASNGIYPVILYYKDFDELVLAYGISDTNEPHAQWQFSSDIPKTIAEYFQATSGVYPKKYGQSYYACSQKVSQGIDYTRFASMLDNIINDYKLIFNSGKSVIPPMSKTESYCLEDALNDLFIPETTIETILKRLTIKKNIILQGPPGVGKTFVARRLAYLLTGEKAPQRVNMVQFHQSYSYEDFIQGYRPNGVGFRRKDGIFYNFCQQAKEQPEKKYIFIIDEINRANLSKVFGEVMMLMAHDKRGENWSVPLTYSENDEERFYVPENVYIIGLMNTADRSLAVVDYALRRRFSFIDIEPGFDTPQFRNFLLNKKAEPSFVESLCQKMNELNQEISKEATILGKGFRIGHSYFCCGLEDGTSPDTQWLNEIVMTDIAPLLEEYFFDDPYKQQKWTNKLLGDS [E298A]
